± gives the standard deviation of the averaged measurements.
Test system: Saccharomyces cerevisiae
Experiment: protein stability index of tFT-peptide fusion (C-terminal peptide) (PSI (0-1 scale)); higher = more stable (slower turnover)
Conditions: temperature: 30 C
Method: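 MPS profiling in S. cerevisiae of the yeast C-terminome library: the last 12 aa of each annotated ORF are fused to the C-terminus of a sfGFP-mCherry timer, after a GGGS linker. Cells are FACS-sorted into 8 mCherry/sfGFP bins and deep-sequenced. PSI runs from 0 (unstable) to 1 (stable); wild type and das1Δ backgrounds, two technical replicates each.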

[1] = genetic background: das1 deletion

Q: How did the protein stability index [1] turn out when DGPKFTFKRRKG [XRS2 C-terminal 12 aa] was run?
A: 0.713 ± 0.027

Q: What about the protein stability index (genetic background: wild type) of the same sequence?
A: 0.778 ± 0.041

Q: For AGSRRLDFRFYH [YOL162W C-terminal 12 aa], which protein stability index [1] is on record?
A: 0.678 ± 0.064

Q: What about the protein stability index (genetic background: wild type) of the same sequence?
A: 0.6607 ± 0.0057

Q: For YDYLINNKTIFD [POF1 C-terminal 12 aa], which protein stability index [1] is on record?
A: 0.722 ± 0.022

Q: And the protein stability index (genetic background: wild type)?
A: 0.736 ± 0.022

Q: For NMLFICLNVPHY [YGL114W C-terminal 12 aa], which protein stability index [1] is on record?
A: 0.6561 ± 0.0045

Q: And the protein stability index (genetic background: wild type)?
A: 0.632 ± 0.007

Q: With KKPFDKKPKFNI [YKU70 C-terminal 12 aa] as the sequence, how does the protein stability index [1] read?
A: 0.727 ± 0.024

Q: And the protein stability index (genetic background: wild type)?
A: 0.686 ± 0.017

Q: Which protein stability index [1] does the source give for SYRLGKNAAEGK [CAP1 C-terminal 12 aa] here?
A: 0.685 ± 0.017

Q: And the protein stability index (genetic background: wild type)?
A: 0.663 ± 0.025

Q: How did the protein stability index [1] turn out when DIMVFEISNCRV [HIS1 C-terminal 12 aa] was run?
A: 0.6816 ± 0.0057

Q: What about the protein stability index (genetic background: wild type) of the same sequence?
A: 0.73 ± 0.052

Q: With RPDSTAPSNENQ [PEP1 C-terminal 12 aa] as the sequence, how does the protein stability index [1] read?
A: 0.7262 ± 0.00093

Q: What about the protein stability index (genetic background: wild type) of the same sequence?
A: 0.7245 ± 0.0041

Q: CAVGGPEKLKFY [BUD3 C-terminal 12 aa] was tested. Which protein stability index [1] did it give?
A: 0.726 ± 0.018

Q: And the protein stability index (genetic background: wild type)?
A: 0.758 ± 0.018

Q: Which results are given for IERLFKEEEYYS [TCD1 C-terminal 12 aa]?
A: protein stability index [1]: 0.70198 ± 0.00056; protein stability index (genetic background: wild type): 0.703 ± 0.011

Q: Which protein stability index [1] does the source give for KMLDALKNERKK [HTL1 C-terminal 12 aa] here?
A: 0.716 ± 0.015

Q: What about the protein stability index (genetic background: wild type) of the same sequence?
A: 0.673 ± 0.038

Q: With HKELLAKLEGSD [HNT1 C-terminal 12 aa] as the sequence, how does the protein stability index [1] read?
A: 0.688 ± 0.0052

Q: What about the protein stability index (genetic background: wild type) of the same sequence?
A: 0.703 ± 0.025

Q: QVGKSQAQAVTL [ANY1 C-terminal 12 aa] was tested. Which protein stability index [1] did it give?
A: 0.674 ± 0.0092

Q: What about the protein stability index (genetic background: wild type) of the same sequence?
A: 0.7167 ± 0.0057

Q: With GGFDDGFDGSDF [WWM1 C-terminal 12 aa] as the sequence, how does the protein stability index [1] read?
A: 0.719 ± 0.012

Q: And the protein stability index (genetic background: wild type)?
A: 0.728 ± 0.0098

Q: For MDNKQQLSSGRT [SNA3 C-terminal 12 aa], which protein stability index [1] is on record?
A: 0.709 ± 0.016

Q: And the protein stability index (genetic background: wild type)?
A: 0.686 ± 0.021

Q: What does the source list for SQLPSLYAPSYY [SSU72 C-terminal 12 aa]?
A: protein stability index [1]: 0.703 ± 0.02; protein stability index (genetic background: wild type): 0.7264 ± 0.0056

Q: With VYENNSYPNSHT [RTT105 C-terminal 12 aa] as the sequence, how does the protein stability index [1] read?
A: 0.6964 ± 0.0011

Q: What about the protein stability index (genetic background: wild type) of the same sequence?
A: 0.678 ± 0.023

Q: How did the protein stability index [1] turn out when GKVLFKPSSSIF [YBR064W C-terminal 12 aa] was run?
A: 0.719 ± 0.011

Q: What about the protein stability index (genetic background: wild type) of the same sequence?
A: 0.695 ± 0.017

Q: Which results are given for SVYQPFFALCGL [YDR355C C-terminal 12 aa]?
A: protein stability index [1]: 0.6756 ± 0.0066; protein stability index (genetic background: wild type): 0.645 ± 0.017

Q: What does the source list for RAHITKQKKKGY [SDA1 C-terminal 12 aa]?
A: protein stability index [1]: 0.7317 ± 0.0043; protein stability index (genetic background: wild type): 0.6636 ± 0.0011

Q: YNGGGKKLDGFW [YSP3 C-terminal 12 aa] was tested. Which protein stability index [1] did it give?
A: 0.7015 ± 0.0059

Q: And the protein stability index (genetic background: wild type)?
A: 0.691 ± 0.025

Q: Which protein stability index [1] does the source give for LVEGQTFDADVE [EGD1 C-terminal 12 aa] here?
A: 0.69111 ± 4.7e-05

Q: And the protein stability index (genetic background: wild type)?
A: 0.671 ± 0.033

Q: Which protein stability index [1] does the source give for IAVNYCMFGRSY [YHR020W C-terminal 12 aa] here?
A: 0.685 ± 0.022

Q: And the protein stability index (genetic background: wild type)?
A: 0.73 ± 0.061

Q: What does the source list for “EELPSDIATLLN [YKR059W; YJL138C C-terminal 12 aa]”?
A: protein stability index [1]: 0.7021 ± 0.00081; protein stability index (genetic background: wild type): 0.716 ± 0.031

Q: For “EGRGYQQIHKLS [YHR139C-A C-terminal 12 aa]”, which protein stability index [1] is on record?
A: 0.721 ± 0.018

Q: What about the protein stability index (genetic background: wild type) of the same sequence?
A: 0.253 ± 0.0035

Q: LHTEREKKKKKF [YKR040C C-terminal 12 aa] was tested. Which protein stability index [1] did it give?
A: 0.725 ± 0.043

Q: What about the protein stability index (genetic background: wild type) of the same sequence?
A: 0.682 ± 0.1

Q: AFGNGFNSSIRW [NRP1 C-terminal 12 aa] was tested. Which protein stability index [1] did it give?
A: 0.71 ± 0.012

Q: And the protein stability index (genetic background: wild type)?
A: 0.68 ± 0.0089

Q: Which results are given for AREAVVRAGFDS [YIH1 C-terminal 12 aa]?
A: protein stability index [1]: 0.729 ± 0.01; protein stability index (genetic background: wild type): 0.745 ± 0.071

Q: RSPKKKKNYHKR [NUR1 C-terminal 12 aa] was tested. Which protein stability index [1] did it give?
A: 0.74 ± 0.061

Q: And the protein stability index (genetic background: wild type)?
A: 0.6729 ± 0.006

Q: Which results are given for DTDGMQDQSSNI [IVY1 C-terminal 12 aa]?
A: protein stability index [1]: 0.693 ± 0.019; protein stability index (genetic background: wild type): 0.679 ± 0.019

Q: LKSVKHSIRVYT [YPR012W C-terminal 12 aa] was tested. Which protein stability index [1] did it give?
A: 0.627 ± 0.015

Q: What about the protein stability index (genetic background: wild type) of the same sequence?
A: 0.604 ± 0.028

Q: What does the source list for WLRKWLSTFVHQ [YNL018C C-terminal 12 aa]?
A: protein stability index [1]: 0.732 ± 0.042; protein stability index (genetic background: wild type): 0.23 ± 0.022

Q: What does the source list for KYEPTQEIIEDI [ITR1 C-terminal 12 aa]?
A: protein stability index [1]: 0.693 ± 0.036; protein stability index (genetic background: wild type): 0.702 ± 0.048

Q: For KKKSRMFSFRKS [UBP13 C-terminal 12 aa], which protein stability index [1] is on record?
A: 0.702 ± 0.011

Q: What about the protein stability index (genetic background: wild type) of the same sequence?
A: 0.709 ± 0.048

Q: Which protein stability index [1] does the source give for FMWLLLALPVVF [FLO11 C-terminal 12 aa] here?
A: 0.362 ± 0.027

Q: What about the protein stability index (genetic background: wild type) of the same sequence?
A: 0.393 ± 0.019

Q: YKNNWLILQQQD [KSP1 C-terminal 12 aa] was tested. Which protein stability index [1] did it give?
A: 0.694 ± 0.066

Q: And the protein stability index (genetic background: wild type)?
A: 0.703 ± 0.082

Q: DVHSKIEKQLGI [UMP1 C-terminal 12 aa] was tested. Which protein stability index [1] did it give?
A: 0.7202 ± 0.0061

Q: What about the protein stability index (genetic background: wild type) of the same sequence?
A: 0.697 ± 0.017

Q: What does the source list for “HTRQGNITQTKY [YKL100W-A C-terminal 12 aa]”?
A: protein stability index [1]: 0.698 ± 0.017; protein stability index (genetic background: wild type): 0.692 ± 0.043

Q: How did the protein stability index [1] turn out when LSNMLNQFILNL [YLR202C C-terminal 12 aa] was run?
A: 0.754 ± 0.058

Q: And the protein stability index (genetic background: wild type)?
A: 0.74991 ± 6.5e-05

Q: Which protein stability index [1] does the source give for GLSDEEDSSEED [RRT14 C-terminal 12 aa] here?
A: 0.679 ± 0.00072

Q: And the protein stability index (genetic background: wild type)?
A: 0.698 ± 0.021

Q: EEGIDPSTYLNN [SUB2 C-terminal 12 aa] was tested. Which protein stability index [1] did it give?
A: 0.709 ± 0.033

Q: What about the protein stability index (genetic background: wild type) of the same sequence?
A: 0.684 ± 0.014

— the supplement of paper PMC10724198
